This data set can be described thus: protease stability score; higher = more stable; yeast display proteolysis, trypsin and chymotrypsin.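 Also: log10 excess protease needed over predicted unfolded state with 0 meaning unfolded.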

As to “DERAAQTAVDLMKTNNERDRVKMADENVRYNVGDKTVHGREEWKKFAEQQRTSIDHMKIDDVKHHNGRIQVDMVVVVNGKKFRFVLQATVHNGKFKYFQRKVRDDEIRKILRRINK”, the protease stability score was found to be 0.235.
With “DERAEELLQRWMDAQRTGNPDEFVKLLDPNARYVVGDKEIHGSEQFKTHWQRQQDEMNVKVDVEDVKFSGNKISVRFHIEVDVNGRPLTDTATATWDLHNGRIKRQVYHLDPEFLRQVDS”, the protease stability score was 0.936.
Then “DERAEELVKRIFEALHDGDPQKFVNNIDPNARVNIGDEEIHGRKDAEREIQKRLEHSRVRFDLRSFRVSNGRAEATANVQENHNGRPQTNTVKATFVIHDGRVKEINMQHDG”, with -0.101; and “DERAHEAIENWLRAEQTNDPKQVKDNADPNARVHVGDKVLHGMEEIQDELKRRIDQARYHIKDFHIDIQGEKAQIDREYTFSINGRPMSNTVRQEAKVDNGKIKEVNFRVSEELEDQEHK”, with -0.242.
With “DERAHSHVEDFFRNLKSGNEDEIRKLLDPNARIKVGDKVIHGRDDAKRYVQQQKREMRMEYDVKTVDAQGDKIQVQVNVTQQHNGRPVQYQQNLHMTVENGDIHTVNYQMDTRIERVQES” the figure was -0.231.
With “DERAIRTVTRFWTAIKHNDPDKAVENVDPNARFRIGDREVDGDEDAKQWIEEMKRHMHIDIRSLRARDQGDKIEINFKFVISYNGRPQSQTQHATARVHNGKIHEVDINFDDQKKRELDS” the figure was -0.006; with “DERAKEQMKNFQQAVSEGDPDQFRELMDKDARMVIGDQQLHGREKMMHQWQRLTRRIRREVKSVDVQVRGDTAELDIHFEQRKDGQPTKNSAVLEAVVHNGKVKELRVKNKR”, 0.078.
The sequence “DERAKEVFKELIEAWKHGNEDQVREMADKDARFTVGDKEIHGREEWAKQIRERHEKIRFEMRIRHVHVNGDRLSIEADFSVDINGQPLSYRMKIELRIHNGKIKELVFQVSEEDKNKQKR” returned a protease stability score of 0.576.
With “DERALDVARQLVEALNTGDPETANNLLDKNVHIRVGDKRIHGRKQHSRTVDREKKEIRRHLEKVTNKSKGDKADVDIQFQQTHNGRPTSNQMKMIVEARNGKVKRMSVREHG” the figure was -0.469; with “DERALDVVRKYQEALNSNDPEHLVELIDPNAKLQVGDKTIHGREQLHHEAQKRKDEMRLNVEVHDLRDRGSTVQIHARRSYSHNGRPRSERYVLHATIRGDKIDKMHFQTDS”, -0.243; with “DERALKMIREFEEIRSKGDERQLSEQVDKDADFHVGDKRLTGMDRVASELVQEVRDWRVSVDIKRMSISNGSLDIDAQVRFSHNGKPVTVHLDLKIIVHNGTIKQIEITNQP”, 0.698.
Then “DERALRNWRRLETAVNTNNPDKVQKLMDKDVKYEVGDKTIRGRRHAAQSLVERVNKIHLDIKSVTATDSGDNVRIRLDAVRNHNGRPHRDVLNITVKADNGKIVSVKTTKDG”, with 0.001; and “DERAQDLVRQWLENVHTGDPSKLREQMDPNAHVVIGDRTFTGRENFAETVHHHLQDQRVQYDTMRIENEGEKARFRYKATVQHNGQPSKHQATAQLTLHNGRIQSLQMESTQ”, with -0.162; and “DERAREIVTRYFTALERGDPDKARKLADKDVRISVGDTQINGHDQMARTIDKQKKHMRIRFEDVKIHVNNGRADVKFHAVFEHNGKPERKNRTIIFNVHDGRIKEIQAQDDE”, with 0.321.
Sequence “DERARERVEELLQVENDGDPDKVMEYFDPNAKAEIGDKHIHGRETFRHRLERTNKEMRYHLEVEHIRVNGNNVEMTFRAETEHNGQPSHDRNHAVLHITNGRIKYKRVKRDG” registered a protease stability score of 0.178.
With “DERARNVLKRIMHALRENNEEEFKKNADPNVRIHVGDKQYHGREDAARKIMTTLKSMKERIDVKSVDVEGDQIELHADVQVEENGQPDTKEIRVHADIQGDKMRSMKVDDTK” the figure was -0.308; with “DERASELAEKIIKALHTGNPQEVQKLVPPDVHVVYGDKNIHGRENAKKYWDQVLRNWRLNIQDFRIDADGDNVTVELHAEFNVNGQPIQARATVTVNVKNGRVKELNVQLPHEDLRRIRQ”, 0.619.
With “DERAVEVLERFLEAQKTGNEEDLKKQVDPNARIQIGDKQVHGMDQAARNLVDTYEEIQIDFRIDRMSAHNGNVTVEAHQQINVNGRPFRNSVTMHAYLQGDKAKEINYRVPEKFENEVKS” the figure was -0.326.
The sequence “DERAVKRMEKFIKVLINGNPDDLKEYLDENVKVDVGDKRIHGRETFMNEAEKDKRQMSVSLKEVRVDAHNGRLQVNARVHINHNGTPRDKEYVMQAILHNGRIKSMRVQSTG” showed a protease stability score of 0.835.
“DERDADEIAKVFVHNNPKDIERMVDEDVRIIIGDFEVQGREEARKYAEQLEKHIDHNHVRDYRVEGNKVTLDVNVVVNGRSLTFVVHITMHNGHVKEIRVQFTSPEDQKVFKEVVG” had a protease stability score of 0.719.
Then “DERDADKVRQLYENEQHGDEHKVMQLVDKDVRFQYGDHEVQGREQQKKLVKERQDKARFELKSVDARDHNGRVRVDVRWVAEVNGRPHEDTIEVVVEIHNGKVKHVEFRVDPDHWTEVMQ”, with 0.152.
Then “DERDAETWTRMLEAVEYNNPEEVRKNADPNANFVYGNKTITGREQYAEEMKKEMDDMRKHVKIDDYHVEGDNIHVSAKFEWEVNGTPVRDTVSVQFVAENGKVRSVQYRFDPDSERKEDQ”, with -0.641; and “DERDAKKRIKDMIEALHTGDPDEFKRNLPPNARLEYGDKRVHGREQLAREVEKERKRFDHVEVKHIKVDNGRVHVELDLNVNGRTETRELVFNVSNGRVEEVHIRVP”, with -0.186; and “DERDANEMMRVIREGDFNKFRQMADENVSAVYGDKTVRGRETIKRIIHRIKRHVDHLKVDSLSTTGDHVTVDAVMHVNGQRVHFVMVVRVQNGHIKEVQFEVRNEEAQKRLEQVLS”, with 1.18.
Then “DERDATNAIESVMKAIKEGDPDQMQKNADPNARLQIGDKVYHGRETIVTLLKELAHRVDHLQIDSMHQHNGRVTVSILVQVNGQRRTVNIEAQARDGRLKNMHIDPEFWRQLER”, with 0.781; and “DERDDRQLNHLFRDLVHGDPDEADKLVDPNVQFTYGDRTYSGNDELQRLIDNWKKELHVTVKDIRVENQGDKVVIHIEMEYTHNGQPTSYKMSVRATAHNGKVKHMNMTSQS”, with 0.103; and “DERDEKRLNETAHRLVKTGDPDQWARLADKDVHVRVGDKKWEGREQLRDLLSRIVKNVDTHQVDTVTAKNGRITIRMVLNINGRNLTIWVTMVIHNGKIKEVEVRVRSEKERKKLES”, with 0.981.
Sequence “DERDHVRRLLNTWLKVVKRNDEDQARRLADPNARVEVGDKTYSGDEKVVELMHKIRQQYDSIDIHLHTVKREGDFIHAKAKMDAKVNGKQEDVTMFIWFKQHNGEWHILQVIIK” had a protease stability score of 0.723.
Then “DERDLEEVNRLVKHGNWHEFVKNADKNVRARVGDKRVHGREHFKSLAENWRRRIDHQSIKFVDVQGERAVVTMKMNVNGKTVEVMFSFVVSNGHIKEYEMRARNDDDETRLQEVRS”, with 0.478; and “DERDLHRQAEDVATAWQTGDSHQFEKLASENVRYVIGDKSYKGKEQVKDMLTEIDKQADHRRVSSMTVHGNKIVVVITVHYNGRTRRLNVVFDVHNGRVRQVDLSIG”, with 0.701; and “DERDLKEAIDNIRTNNFDELNKMADPNVKAVIGNKTIHGRETINKFLHRLSQQVDHVRIRHYHTRGDHLHVDFKVHFDGKDVKLRIVIRVNNGKITYIQIDVTSEEQLEELDEIVD”, with 1.59.
With “DERDLKEALDLVKTGDFTRIARMADENVKLKVGDKDVHGREDAKRLMSQLEKQVDHYEIDDVTLEGNSASIDAHFNVNGNRIRFVVVIHVHNGKIKHFTIHVRDEEDKDKLRKDDG” the figure was 0.799; with “DERDLKTFLDILERNDEDKLQTMADENVELQVGDKTFHGREEFQKYVQHVRDQVDRVDVRDYRIDNGRASVRVIFDFNGKNLDVVMVFSVRNGRVKYFSIQYRDEEVKKMLEEIEG”, -0.172.
Then “DERDMKAIVRAVKAFRRNNPEEVRENVDENVRIHVGDKEVHGRDQLKRDMEREVKTWRRSIRRISIDNQGDTVNVDIDQEKKHDGDPNREQNVVHFVAQNGKIKSVEQRHDG”, with 0.748; and “DERDMTKVFDALLKNDEDTVKDQLDEDVQVTVGDKKVHGREQAQETWERLLQRADHINMKSFTTRGDRAVAIVVARVNGHKLEWEYRFKASNGKVEHARIDFRDDDEERKFENALR”, with 0.024; and “DERDNKVVEEYIKALQRGDPKQARRQADPNARFQVGDTELHGMDDVARKIERETKQWRLEIHHVKVDVKGDKMTIRLDFVVEVNGHPKRMNLTVEAHAHNGKIKEMVMHVDPKQEEELKS”, with 0.188.
Sequence “DERDQELFQNFIKALQTNNPDQVMEQVDPNAEIQYGDRVVRGRHQLRREVEQEHHEMRNDIKVRSIRANNGHVEATFDVVFEINGKPVENRVSVILEMRDGRAKHIEWRIPSEVKEQLKG” had a protease stability score of 0.059.
With “DERDQKHLAELIAKALETGDFKLAQKNVDENVRVKVGDETLHGKDNMQKWAEENHRRVDHLQLNDIKIHNGRVVINMRAVVNGKDFRLDIKIQFDNGKIHVVSIDPRVERHIKS” the figure was 0.733.
“DERDQNRKAEEAAHALRDGDERRISEMFDKNAHATVGDQTYTGREEIMKWVHDIKKRYDHVTLHDVKVHNGRADLDMVFNHNGKEDRIRIDIQFQGDKIKHVSVRSK” had a protease stability score of 1.69.
Then “DERDQRRRMDQARKILKNNDEEKFNRLLDENARMRVGEKVFHGRRQARTHLKRLHEHVDSIRVNHVSVHNGNVEVVVTMQHNGRYRQIRFDMQVHNGRAKEVKIDTS”, with 0.091; and “DERDQVKRAKEYLHAFNQGDPDEADKNADPNAKVDVGDHRYHGREEFDKAVKTFKDQVDHIEVKDVKAQGNHASARVTADVNGHTLDMIITVELHNGKVKSYVVKKK”, with -0.175; and “DERDRHKQVEEMINAFDDGDEETIKELMDEDVRAQIGNKRVHGQENVSRILKEFRDRADHIQVDTYHVEGDRAQIHAKVEVNGRRIKVSIHVQLENGRFKSFVIEYTDSDKLREMQS”, with 0.909.
With “DERDRRVMEDFFRALEEGDPDTLRQNMDKDAKLVIGDKTYHGREEIATRIVQHIEHAHVRMRVDSIRAHNGRVEVNVTFMVNHNGRPRSDRMNVEAVIRNGKIKELHLVTEK” the figure was -0.131; with “DERDVHRIAEQLIKAMQTGDEKKLTDLADKDAEAQIGDKEIHGNHDFSRAMREFRERVDHIELKDIRVHNGHVSVDIVADINGVQLRFVITMEVKNGKVRQLSVEVRDPEQEKTALS”, 0.9; with “DERDVKRVEEWVKAEHTGDKDKMKELLDENAEIQIGDRSITGRETRAEELRKRQEQMRVRFRKVDFQHRNGQARVDMDVQNDHNGKPHTHRVDANFQLHNGKVQRVKMTSHK”, 0.099.
With “DERDVKSVIDLVKTGDFDQMVRNADKDVKIRIGDKHVHGREQASEAMKKFTDQIDHYEVKSVNVNNGRVIVEAVFVVNGEKITVTVIVEAQNGRITHVEWRYRDEHDKKLLRKILG” the figure was 1.47; with “DEREAASVAMRAAQAFVTGDEKTFVDNVDPNARVTVGDKHLHGREHIQDHIRKLKTRVDHHEIHDYKVHGNKATMDVRVVFDGRTRDKKIFAVAHNGRVQEMRVEDG”, -0.299.

For the origin of these results see the NTF2 design screens of Basanta et al. (2020).
